Among the data in paper PMC7374170, “TRIB3-EGFR interaction promotes lung cancer progression and defines a therapeutic target” (Nature Communications, 2020) are IC50 and Ki values, retold here.

This experiment deals with TRIB3 (tribbles pseudokinase 3), purified protein (UniProt Q96RU7). In words: FP.
Sequence of TRIB3 (tribbles pseudokinase 3), purified protein (Q96RU7 whole entry): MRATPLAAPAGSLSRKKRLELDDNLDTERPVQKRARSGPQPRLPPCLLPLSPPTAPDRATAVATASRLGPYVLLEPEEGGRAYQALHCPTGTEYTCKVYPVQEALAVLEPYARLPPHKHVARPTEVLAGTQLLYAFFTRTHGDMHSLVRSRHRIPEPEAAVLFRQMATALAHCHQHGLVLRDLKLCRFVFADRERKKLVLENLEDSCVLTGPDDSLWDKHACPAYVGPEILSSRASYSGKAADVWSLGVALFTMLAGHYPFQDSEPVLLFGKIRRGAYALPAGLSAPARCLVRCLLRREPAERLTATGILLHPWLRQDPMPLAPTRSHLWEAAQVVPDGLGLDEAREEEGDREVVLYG

Substance “SAH-JGZ4, stapled JGZ peptide (from UniProt P00533)” gave an IC50 of 90.3 nM and a Ki of 27.7 nM.

One may read the IC50 as the midpoint of a concentration-inhibition curve. One may read the Ki as a measure of affinity in units of concentration, obtained from inhibition or displacement. A low value points to a stronger hold on the target.
